US20110257086A1 (Johns Hopkins, published 2011)

Columns and labels:
Experiment in all cases: cell-based or functional assay
PCAF HAT = target: PCAF HAT
[1] = target: serotonin N-acetyltransferase
p300 HAT = target: p300 HAT
[2] = target: T1, ghrelin O-acyltransferase (GOAT) endogenous in human cell lines (HEL, Kato III, AGS) (human, UniProt Q96T53 1-435)
T1 sequence: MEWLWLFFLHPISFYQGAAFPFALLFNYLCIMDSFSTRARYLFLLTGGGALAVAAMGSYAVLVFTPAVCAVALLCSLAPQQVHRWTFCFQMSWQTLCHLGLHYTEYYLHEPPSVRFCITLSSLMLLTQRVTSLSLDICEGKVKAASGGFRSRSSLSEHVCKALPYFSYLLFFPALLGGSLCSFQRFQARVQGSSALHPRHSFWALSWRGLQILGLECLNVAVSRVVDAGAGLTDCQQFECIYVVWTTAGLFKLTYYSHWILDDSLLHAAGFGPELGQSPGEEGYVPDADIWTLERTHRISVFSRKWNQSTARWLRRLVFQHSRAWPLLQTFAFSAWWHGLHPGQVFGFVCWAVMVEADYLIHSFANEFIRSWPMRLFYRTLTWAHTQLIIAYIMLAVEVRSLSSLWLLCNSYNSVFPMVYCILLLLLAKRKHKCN

B1: GO-CoA-Tat (Compound 1 of FIG. 1C), bisubstrate analog inhibitor of ghrelin O-acyltransferase (peptide)
peptide: GSSFLSPEHQYGRKKRRQRRR
modifications: Ser3 of ghrelin replaced with 1,2-diaminopropionic acid (Dap), whose side-chain amine carries an octanoyl group conjugated at its alpha carbon to coenzyme A; amino-hexanoyl (Ahx) linker between ghrelin residue 10 and the Tat peptide
With B1 the “inhibition of acetyltransferase activity at 10 µM GO-CoA-Tat (alpha-KGDH coupled spectrophotometric assay)” value (“inhibition of acetyltransferase activity” below) (PCAF HAT) was less than 15 % inhibition, the “inhibition of acetyltransferase activity” value [1] was less than 15 % inhibition and the “inhibition of acetyltransferase activity” value (p300 HAT) was less than 15 % inhibition. For the same binder, the “IC50 of reduction of acyl-ghrelin levels in cell lysates (HEL, Kato III, AGS cells)” value [2] was 1 to 2 µM.
